# Reference: patent US20240254222A1 (Bayer, published 2024)
# T1: Mouse Semaphorin3A-Sema Domain, TPP-19069 (mouse, UniProt O08665 21-569)
# T1 construct: produced inhouse
# T1 sequence: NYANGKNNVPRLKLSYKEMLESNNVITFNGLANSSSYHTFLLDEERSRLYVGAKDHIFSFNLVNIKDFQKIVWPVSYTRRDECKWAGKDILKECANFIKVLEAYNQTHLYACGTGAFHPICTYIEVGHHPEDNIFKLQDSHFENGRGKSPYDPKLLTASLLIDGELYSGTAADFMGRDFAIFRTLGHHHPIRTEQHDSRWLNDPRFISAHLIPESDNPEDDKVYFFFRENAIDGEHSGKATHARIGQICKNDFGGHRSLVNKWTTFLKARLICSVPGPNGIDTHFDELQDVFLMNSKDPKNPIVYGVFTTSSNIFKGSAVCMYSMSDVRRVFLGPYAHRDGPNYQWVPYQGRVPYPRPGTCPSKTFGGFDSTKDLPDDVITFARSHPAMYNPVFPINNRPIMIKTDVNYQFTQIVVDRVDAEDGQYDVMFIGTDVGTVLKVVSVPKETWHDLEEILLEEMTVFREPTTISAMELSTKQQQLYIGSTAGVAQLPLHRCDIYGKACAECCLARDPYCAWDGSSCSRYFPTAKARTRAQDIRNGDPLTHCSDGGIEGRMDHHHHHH
# T2: Dog Semaphorin3A-Sema Domain, TPP-19121 (dog, UniProt Q63548 21-569 (rat entry), limits assumed)
# T2 construct: produced inhouse
# T2 chain: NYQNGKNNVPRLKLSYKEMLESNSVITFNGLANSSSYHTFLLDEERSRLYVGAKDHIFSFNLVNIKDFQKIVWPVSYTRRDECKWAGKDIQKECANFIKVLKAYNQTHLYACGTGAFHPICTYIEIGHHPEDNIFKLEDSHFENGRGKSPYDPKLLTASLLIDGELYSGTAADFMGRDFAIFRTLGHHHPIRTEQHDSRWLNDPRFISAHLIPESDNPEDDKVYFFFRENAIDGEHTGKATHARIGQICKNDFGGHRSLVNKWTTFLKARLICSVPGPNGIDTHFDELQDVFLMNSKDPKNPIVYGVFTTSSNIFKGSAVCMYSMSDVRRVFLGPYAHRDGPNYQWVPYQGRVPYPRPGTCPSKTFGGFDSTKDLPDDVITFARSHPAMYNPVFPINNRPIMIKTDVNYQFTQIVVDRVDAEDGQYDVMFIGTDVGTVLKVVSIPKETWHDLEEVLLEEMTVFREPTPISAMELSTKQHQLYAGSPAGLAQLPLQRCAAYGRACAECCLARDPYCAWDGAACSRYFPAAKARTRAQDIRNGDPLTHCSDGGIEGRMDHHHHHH
# T3: Human Semaphorin3A-Sema Domain, TPP-19068 (human, UniProt Q14563 21-569)
# T3 construct: produced inhouse in HEK293-6E; also called human monovalent Sema3A domain
# T3 sequence: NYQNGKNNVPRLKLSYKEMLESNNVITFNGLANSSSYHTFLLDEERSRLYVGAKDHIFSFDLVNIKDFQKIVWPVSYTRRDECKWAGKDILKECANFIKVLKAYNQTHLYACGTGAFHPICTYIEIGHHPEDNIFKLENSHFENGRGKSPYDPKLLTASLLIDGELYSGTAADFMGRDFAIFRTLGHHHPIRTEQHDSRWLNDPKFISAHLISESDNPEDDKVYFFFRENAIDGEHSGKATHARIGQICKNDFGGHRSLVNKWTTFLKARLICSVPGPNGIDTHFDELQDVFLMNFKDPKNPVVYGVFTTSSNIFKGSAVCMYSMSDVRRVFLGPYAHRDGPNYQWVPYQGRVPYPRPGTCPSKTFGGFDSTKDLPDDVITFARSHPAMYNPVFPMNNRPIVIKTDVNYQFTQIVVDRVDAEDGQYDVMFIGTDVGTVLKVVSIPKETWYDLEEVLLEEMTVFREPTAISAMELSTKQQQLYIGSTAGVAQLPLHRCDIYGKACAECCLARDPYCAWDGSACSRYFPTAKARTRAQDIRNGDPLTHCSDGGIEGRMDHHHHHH
# Assays:
# [1] = biological target: T1, Mouse Semaphorin3A-Sema Domain, …; experiment: SPR, captured antibody, Sema3A domain analyte
# In short: (§1)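 SPR on Biacore T200/8K+ at 25° C in HBS P+ with 300 mM NaCl, 0.75 mM CaCl₂, 2.5 mM MgCl₂, 1 mg/ml BSA; antibodies captured by anti-human Fc, or anti-human Fab for Fc-tagged analytes. Fc-Sema3A at 1.56-200 nM; monovalent Sema domains at […]-3.125 nM multi-cycle or 100 nM binding only. Double-referenced 1:1 Langmuir fit.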
# [2] = biological target: T2, Dog Semaphorin3A-Sema Domain, TPP-19121; experiment: SPR, captured antibody, Sema3A domain analyte
# In short: as §1
# [3] = biological target: T3, Human Semaphorin3A-Sema Domain, …; experiment: SPR, captured antibody, Sema3A domain analyte
# In short: as §1
# [4] = biological target: Human Semaphorin3A-Fc (R&D Systems), TPP-13211 (human); experiment: cell-based or functional assay
# [5] = biological target: T4, Human Semaphorin3A-Fc (R&D Systems), TPP-13211 (human); experiment: ELISA, coated Sema3A-Fc, antibody 0.00015-10 ug/ml
# T4 construct: R&D Systems 1250-S3; also called recombinant human Sema3A-Fc chimera
# T4 sequence (chain, as listed by the source limits assumed): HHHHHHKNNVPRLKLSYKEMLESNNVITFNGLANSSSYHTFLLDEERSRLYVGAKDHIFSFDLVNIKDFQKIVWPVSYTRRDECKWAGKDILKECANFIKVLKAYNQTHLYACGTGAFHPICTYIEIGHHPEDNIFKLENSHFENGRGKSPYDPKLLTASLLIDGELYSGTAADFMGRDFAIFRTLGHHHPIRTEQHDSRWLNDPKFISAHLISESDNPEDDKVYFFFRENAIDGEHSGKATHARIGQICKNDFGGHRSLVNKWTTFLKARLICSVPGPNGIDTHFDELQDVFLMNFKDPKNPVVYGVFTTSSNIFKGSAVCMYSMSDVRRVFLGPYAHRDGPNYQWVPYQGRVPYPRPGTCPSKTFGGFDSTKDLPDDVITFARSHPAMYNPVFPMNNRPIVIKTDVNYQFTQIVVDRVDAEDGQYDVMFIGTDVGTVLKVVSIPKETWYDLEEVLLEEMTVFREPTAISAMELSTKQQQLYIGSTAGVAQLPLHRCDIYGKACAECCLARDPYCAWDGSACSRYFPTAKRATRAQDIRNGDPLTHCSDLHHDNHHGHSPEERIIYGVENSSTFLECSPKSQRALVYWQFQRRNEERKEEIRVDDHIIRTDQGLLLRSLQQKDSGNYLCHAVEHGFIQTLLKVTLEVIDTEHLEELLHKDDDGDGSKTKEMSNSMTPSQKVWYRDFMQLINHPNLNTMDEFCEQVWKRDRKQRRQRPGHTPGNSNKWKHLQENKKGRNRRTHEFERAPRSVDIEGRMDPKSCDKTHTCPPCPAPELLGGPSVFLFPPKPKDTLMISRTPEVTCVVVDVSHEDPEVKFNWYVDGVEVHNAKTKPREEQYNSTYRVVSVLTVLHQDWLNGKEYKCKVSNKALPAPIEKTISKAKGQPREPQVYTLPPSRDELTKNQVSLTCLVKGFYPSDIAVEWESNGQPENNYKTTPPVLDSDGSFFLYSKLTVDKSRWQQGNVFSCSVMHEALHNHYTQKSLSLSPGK
# Method: For the assessment of binding selectivity to Sema3A vs Sema3G, 1 nM recombinant human Sema3A-Fc chimera (R&D Systems) or recombinant human GST—Sema3G (Abnova) were coated on Maxisorb plates, incubated with antibodies in a dose-response curve from 0.00015-10 μg/ml, and the binding of antibodies quantified using HRP coupled anti-human antiserum and chemiluminescent substrate.
Binder,Kd [1] [nM],Kd [2] [nM],Kd [3] [nM],"EC50 [nM], MCM assay [4] [nM]",EC50 [5] [nM]
"TPP-23334 (antibody, human IgG4 S228P, lambda, V domains shown) VH: EVQLLESGGGLVQPGGSLRLSCAASGFTFSSYAMSWVRQAPGKGLEWVSAIGYGGDTYYADSVKGRFTISRDNSKNTLYLQMNSLRAEDTAVYYCARRDDYTSRDAFDYWGQGTLVTVSS VL: not shown",0.062,0.0084,0.021,0.67,9.2
"TPP-23340 (antibody, human IgG4 S228P, lambda, V domains shown) VH: EVQLLESGGGLVQPGGSLRLSCAASGFTFSSYAMSWVRQAPGKGLEWVSAIGYGGDTYYADSVKGRFTISRDNSKNTLYLQMNSLRAEDTAVYYCARRDDYTSRDAFDYWGQGTLVTVSS VL: not shown",0.059,0.058,0.022,0.87,12.3
"TPP-23338 (antibody, human IgG4 S228P, lambda, V domains shown) VH: EVQLLESGGGLVQPGGSLRLSCAASGFTFSSYAMSWVRQAPGKGLEWVSAIGYGGDTYYADSVKGRFTISRDNSKNTLYLQMNSLRAEDTAVYYCARRDDYTSRDAFDYWGQGTLVTVSS VL: not shown",0.045,0.053,0.054,0.6,9.6
"TPP-23341 (antibody, human IgG4 S228P, lambda, V domains shown) VH: EVQLLESGGGLVQPGGSLRLSCAASGFTFSSYAMSWVRQAPGKGLEWVSAIGYGGDTYYADSVKGRFTISRDNSKNTLYLQMNSLRAEDTAVYYCARRDDYTSRDAFDYWGQGTLVTVSS VL: not shown",0.092,0.084,0.091,0.9,21.3

# The remaining lines, values ahead:
Kd [1] [nM],Kd [2] [nM],Kd [3] [nM],"EC50 [nM], MCM assay [4] [nM]",EC50 [5] [nM],Binder
0.043,0.11,0.018,1.43,0.15,"TPP-30788 (antibody, human IgG1, kappa, V domains shown, prior art, WO 2020/225400; also called BI clone I; Böhringer (BI) Clone I) VH: EVQLVESGGGLVQPGGSLRLSCAASGFTFSSYYMSWVRQAPGKGLEWVSTIIKSGGYAYYPDSVKDRFTISRDNSKNTLYLQMSSLRAEDTAVYYCVRGGQGAMDYWGQGTTVTVSS VL: EIVLTQSPATLSLSPGERATLSCRASQSIGDYLHWYQQKPGQAPRLLIKYASQSISGIPARFSGSGSGTDFTLTITSLEPEDFAVYYCQQGYSFPYTFGGGTKLEIKR"
0.055,0.051,0.06,0.67,8.4,"TPP-23347 (antibody, human IgG4 S228P, lambda, V domains shown) VH: EVQLLESGGGLVQPGGSLRLSCAASGFTFYSYAMLWVRQAPGKGLEWVSAIGTGGDTYYADSVKGRFTISRDNSKNTLYLQMNSLRAEDTAVYYCARRDDYTSRDAFDYWGQGTLVTVSS VL: not shown"
0.042,0.045,0.053,1.03,7.7,"TPP-23375 (antibody, human IgG4 S228P, lambda, V domains shown) VH: EVQLLESGGGLVQPGGSLRLSCAASGFTFYSYAMSWVRQAPGKGLEWVSAIGYGGDTYYADSVKGRFTISRDNSKNTLYLQMNSLRAEDTAVYYCARRDDYTSRDAFDYWGQGTLVTVSS VL: not shown"
0.016,0.0073,0.0081,0.3,6.1,"TPP-23374 (antibody, human IgG4 S228P, lambda, V domains shown) VH: EVQLLESGGGLVQPGGSLRLSCAASGFTFYSYAMSWVRQAPGKGLEWVSAIGYGGDTYYADSVKGRFTISRDNSKNTLYLQMNSLRAEDTAVYYCARRDDYTSRDAFDYWGQGTLVTVSS VL: not shown"
0.083,0.1,0.11,0.63,17.6,"TPP-23373 (antibody, human IgG4 S228P, lambda, V domains shown) VH: EVQLLESGGGLVQPGGSLRLSCAASGFTFYSYAMSWVRQAPGKGLEWVSAIGYGGDTYYADSVKGRFTISRDNSKNTLYLQMNSLRAEDTAVYYCARRDDYTSRDAFDYWGQGTLVTVSS VL: not shown"
